Assay results: patent US20160024513, “MAIZE STRESS RELATED TRANSCRIPTION FACTOR 18 AND USES THEREOF” (PIONEER HI-BRED INTERNATIONAL INC., published 2016)

Tests used:
Settings in all cases: tags: 20 aa N-terminal tag incl; 6xHis (pET28)
ZmSRTF18 (SPL VAR4) [1] = molecular target: ZmSRTF18 (SPL VAR4) (Zea mays); assay: EMSA; with or without DTT; strong and specific also with 300 mM KCl and salmon DNA
Experimental: (§1) In gel-shift assays, also known as electrophoretic mobility shift assays (EMSA), DNA with bound protein will traverse the gel more slowly than DNA without bound protein. Thus, gel shift assays indicate whether a protein binds to a specific DNA fragment. The gel shift assays of FIG. 6 were performed using the Molecular Probes™ EMSA Kit (E33075), which provides background information, materials, and methods for gel shift experiments. The assays were done in the presence or in the absence of DTT (dithiothreitol), as it is not certain which condition most accurately reflects the in vivo condition. DNA was stained with SYBR® Green according to the manufacturer's protocol.
(§2) To determine whether DNA binding was specific, and to examine binding of the less severely truncated proteins ZmSRTF18-del (ALT5) (SEQ ID NO: 26) and ZmSRTF18-del (ALT6) (SEQ ID NO: 27), further gel shift experiments were performed in the presence of DTT with the same 34 bp DNA fragment, or with the corresponding fragment that had the DRE element ACCGAC mutated to TTTTTT. Conditions were also optimized to reduce nonspecific binding by adding 300 mM KCl and sheared salmon DNA.

[2] = molecular target: ZmSRTF18 (SPL VAR4) (C71S) (Zea mays, C71S); assay: as above
Chain of ZmSRTF18 (SPL VAR4) (C71S) (Zea mays, C71S) (chain, as listed by the source C71S | C71S C71S): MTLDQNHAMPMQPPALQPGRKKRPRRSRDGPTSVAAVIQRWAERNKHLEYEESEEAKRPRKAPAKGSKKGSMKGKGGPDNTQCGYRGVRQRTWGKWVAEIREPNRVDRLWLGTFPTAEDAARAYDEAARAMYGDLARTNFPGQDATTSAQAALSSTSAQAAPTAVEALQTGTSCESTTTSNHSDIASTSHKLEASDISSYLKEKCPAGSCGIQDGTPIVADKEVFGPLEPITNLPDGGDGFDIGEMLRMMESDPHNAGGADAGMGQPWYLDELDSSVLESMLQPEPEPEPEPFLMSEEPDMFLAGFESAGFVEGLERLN
Experimental: as §1, §2

ZmSRTF18-del = ZmSRTF18-del (Zea mays); assay: EMSA; no DTT; did not appear to bind
Chain of ZmSRTF18-del (Zea mays) (chain, as listed by the source): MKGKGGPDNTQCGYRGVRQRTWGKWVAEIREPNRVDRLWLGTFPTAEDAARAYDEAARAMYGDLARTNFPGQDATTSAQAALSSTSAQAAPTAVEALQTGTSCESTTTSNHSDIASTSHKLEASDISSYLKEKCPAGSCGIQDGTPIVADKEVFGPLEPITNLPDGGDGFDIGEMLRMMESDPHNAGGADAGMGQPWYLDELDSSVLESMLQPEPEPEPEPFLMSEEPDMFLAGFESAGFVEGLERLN
Experimental: as §1

ZmSRTF18-del (ALT2) = ZmSRTF18-del (ALT2) (Zea mays); assay: EMSA; with or without DTT; obvious gel shift
Chain of ZmSRTF18-del (ALT2) (Zea mays) (chain, as listed by the source): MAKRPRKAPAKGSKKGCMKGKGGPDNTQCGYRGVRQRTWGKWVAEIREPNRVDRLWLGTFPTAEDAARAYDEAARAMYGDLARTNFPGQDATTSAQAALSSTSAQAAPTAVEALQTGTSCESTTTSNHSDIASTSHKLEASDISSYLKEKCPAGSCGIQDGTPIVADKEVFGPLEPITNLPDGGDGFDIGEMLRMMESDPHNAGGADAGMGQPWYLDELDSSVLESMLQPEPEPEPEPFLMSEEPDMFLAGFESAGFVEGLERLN
Experimental: as §1, §2

ZmSRTF18-del (ALT6) [3] = molecular target: ZmSRTF18-del (ALT6) (Zea mays); assay: EMSA; DTT, 300 mM KCl, sheared salmon DNA; strong specific binding
Chain of ZmSRTF18-del (ALT6) (Zea mays) (chain, as listed by the source): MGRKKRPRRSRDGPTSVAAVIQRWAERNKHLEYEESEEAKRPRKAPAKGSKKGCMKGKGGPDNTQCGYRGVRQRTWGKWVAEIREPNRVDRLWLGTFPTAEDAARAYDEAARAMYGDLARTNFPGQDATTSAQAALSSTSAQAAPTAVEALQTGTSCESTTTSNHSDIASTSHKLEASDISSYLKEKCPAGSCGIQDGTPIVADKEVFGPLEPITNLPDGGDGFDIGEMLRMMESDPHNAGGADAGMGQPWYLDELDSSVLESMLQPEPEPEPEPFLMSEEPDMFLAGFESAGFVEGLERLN
Experimental: as §1, §2

ZmSRTF18-del (ALT6) [4] = molecular target: ZmSRTF18-del (ALT6) (Zea mays); assay: EMSA; DTT, 300 mM KCl, salmon DNA; binding to DRE stated specific versus this mutant
Experimental: as §1, §2

ZmSRTF18 (SPL VAR4) [5] = molecular target: ZmSRTF18 (SPL VAR4) (Zea mays); assay: as above
Experimental: as §1, §2

[6] = molecular target: ZmSRTF18 (SPL VAR4) (C71S) (Zea mays, C71S); assay: as above
Experimental: as §1, §2

Chain of ZmSRTF18 (SPL VAR4) (Zea mays) (chain, as listed by the source): as the sequence (chain, as listed by the source C71S | C71S C71S) above, with S71C counted along it

Binder	binding result (ZmSRTF18 (SPL VAR4) [1])	binding result [2]	binding result (ZmSRTF18-del)	binding result (ZmSRTF18-del (ALT2))	binding result (ZmSRTF18-del (ALT6) [3])	binding result (ZmSRTF18-del (ALT6) [4])	binding result (ZmSRTF18 (SPL VAR4) [5])	binding result [6]
RAB17 promoter DRE fragment (dsDNA) DNA 1: TAAATTCAGCCTGACCGACCGCCTGCATTGAATA DNA 2: TATTCAATGCAGGCGGTCGGTCAGGCTGAATTTA	binds	binds	no binding	binds	binds			
RAB17 DRE mutant fragment (dsDNA) DNA 1: TAAATTCAGCCTGTTTTTTCGCCTGCATTGAATA DNA 2: TATTCAATGCAGGCGAAAAAACAGGCTGAATTTA						no binding	no binding	no binding
